Assay results: patent US20110135573A1, “METALLOPROTEINASE 9 AND METALLOPROTEINASE 2 BINDING PROTEINS” (DYAX CORP., priority 2009, published 2011)

Assays:
h-MMP-9/h-TIMP-1 complex = h-MMP-9/h-TIMP-1 complex (Homo sapiens, UniProt P14780); assay: Biacore 3000 binding to antibody-coated CM5 chip; settings: Direct capture, 25° C.
Protocol: The non competitive inhibition model implies that the ternary complex enzyme-substrate-inhibitor can form. It is however possible that this complex cannot form with bigger substrates, in which case the antibody would behave as a competitive inhibitor. In order to address this issue, the ability of M0237-D02 antibody to bind to the h-MMP-9 when the enzyme is complexed to its natural inhibitor h-TIMP-1 was determined. The reasoning is that if the antibody cannot bind to the h-MMP-9/h-TIMP-1 complex, it would probably behave as a competitive inhibitor of this enzyme in the presence of bigger substrates.
(§1) Experiments were performed at 25° C. with the help of a Biacore 3000 instrument. The MMP-9 binding protein (M0166F10) and the M0237-D02 antibody were coated to a CM5 chip either via standard amine coupling or using an anti-Fc antibody surface. Then either the active, human MMP-9 catalytic domain (BIOMOL, SE-244), the human pro-MMP-9 (R&D, 911-MP), the human TIMP-1 (R&D, 970-TM) or a h-MMP-9/h-TIMP-1 complex were flowed over the antibody surfaces, and binding was recorded.

[1] = target: T1, Human MMP-9 catalytic domain (Homo sapiens, UniProt P14780); assay: Biacore 3000 binding to antibody-coated CM5 chip; settings: 25° C.
T1 construct: Human MMP-9 catalytic domain (BIOMOL, SE-244); purchased BIOMOL SE-244
T1 sequence (P14780 107-444 limits assumed): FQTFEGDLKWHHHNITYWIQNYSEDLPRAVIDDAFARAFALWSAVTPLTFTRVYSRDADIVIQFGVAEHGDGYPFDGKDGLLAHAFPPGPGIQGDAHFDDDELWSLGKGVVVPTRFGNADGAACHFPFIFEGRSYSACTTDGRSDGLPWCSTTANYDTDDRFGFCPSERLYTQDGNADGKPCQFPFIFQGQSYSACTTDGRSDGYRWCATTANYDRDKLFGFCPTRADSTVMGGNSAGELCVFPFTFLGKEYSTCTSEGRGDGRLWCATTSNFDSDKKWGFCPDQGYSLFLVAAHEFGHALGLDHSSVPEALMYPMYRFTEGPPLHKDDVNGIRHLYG
Protocol: as §1

human pro-MMP-9 = target: T2, human pro-MMP-9 (Homo sapiens, UniProt P14780); assay: Biacore 3000 binding to antibody-coated CM5 chip; settings: Direct capture, 25° C.
T2 construct: the human pro-MMP-9 (R&D, 911-MP); purchased R&D Systems 911-MP
T2 sequence (P14780 20-707 limits assumed): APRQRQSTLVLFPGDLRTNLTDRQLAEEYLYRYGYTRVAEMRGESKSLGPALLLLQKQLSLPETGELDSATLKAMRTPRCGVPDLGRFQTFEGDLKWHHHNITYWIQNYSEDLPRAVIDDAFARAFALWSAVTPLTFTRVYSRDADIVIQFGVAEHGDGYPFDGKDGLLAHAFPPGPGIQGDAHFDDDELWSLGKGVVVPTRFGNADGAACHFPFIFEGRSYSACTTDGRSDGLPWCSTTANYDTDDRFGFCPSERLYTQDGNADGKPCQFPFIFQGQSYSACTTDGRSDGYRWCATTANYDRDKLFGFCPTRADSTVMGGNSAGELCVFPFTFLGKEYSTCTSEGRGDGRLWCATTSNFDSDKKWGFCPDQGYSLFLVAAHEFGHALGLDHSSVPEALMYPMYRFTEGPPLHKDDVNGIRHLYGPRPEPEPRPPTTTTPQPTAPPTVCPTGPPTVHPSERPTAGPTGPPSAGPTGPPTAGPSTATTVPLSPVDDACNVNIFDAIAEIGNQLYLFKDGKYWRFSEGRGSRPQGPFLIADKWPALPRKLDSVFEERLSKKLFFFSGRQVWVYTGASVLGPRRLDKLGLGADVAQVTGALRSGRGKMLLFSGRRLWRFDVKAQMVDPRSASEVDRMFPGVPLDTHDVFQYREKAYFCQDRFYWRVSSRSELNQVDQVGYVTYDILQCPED
Protocol: as §1

human TIMP-1 = target: T3, human TIMP-1 (Homo sapiens, UniProt P01033); assay: Biacore 3000 binding to antibody-coated CM5 chip; settings: Direct capture; 25° C.
T3 construct: purchased R&D Systems 970-TM
T3 sequence (P01033 24-207): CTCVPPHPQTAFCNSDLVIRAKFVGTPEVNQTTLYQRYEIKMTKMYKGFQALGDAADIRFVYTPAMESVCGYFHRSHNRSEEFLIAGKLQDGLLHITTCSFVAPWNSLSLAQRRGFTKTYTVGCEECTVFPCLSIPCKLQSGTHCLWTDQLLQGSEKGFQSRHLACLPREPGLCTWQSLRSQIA
Protocol: as §1

MMP-9 [2] = target: T4, MMP-9 (Homo sapiens, UniProt P14780); assay: Binding of non-inhibiting Fabs to MMP-9 (apparent KD, dissociation t1/2, TIMP-1 competition); settings: Fab
Target sequence in this assay (P14780 94-707): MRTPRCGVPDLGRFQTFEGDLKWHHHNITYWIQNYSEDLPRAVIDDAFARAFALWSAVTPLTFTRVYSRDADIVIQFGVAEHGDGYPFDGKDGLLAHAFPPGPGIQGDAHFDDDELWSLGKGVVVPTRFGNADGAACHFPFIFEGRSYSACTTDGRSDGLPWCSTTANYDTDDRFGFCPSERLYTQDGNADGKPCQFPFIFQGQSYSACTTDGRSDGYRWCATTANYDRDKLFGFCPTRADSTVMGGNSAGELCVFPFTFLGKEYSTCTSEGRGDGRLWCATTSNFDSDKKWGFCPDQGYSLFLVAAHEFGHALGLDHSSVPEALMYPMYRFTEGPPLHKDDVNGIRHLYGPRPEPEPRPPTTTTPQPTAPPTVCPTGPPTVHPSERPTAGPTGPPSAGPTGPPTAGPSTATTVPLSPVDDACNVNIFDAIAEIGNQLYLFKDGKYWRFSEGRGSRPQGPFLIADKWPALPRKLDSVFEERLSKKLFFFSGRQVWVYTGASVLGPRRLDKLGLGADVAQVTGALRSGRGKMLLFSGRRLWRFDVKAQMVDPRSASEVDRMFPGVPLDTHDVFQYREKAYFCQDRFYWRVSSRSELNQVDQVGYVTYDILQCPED

MMP-9 [3] = target: T4, MMP-9; assay: Initial screen of sFabs/IgG1s for inhibition of MMP-9 at 1 μM; assay type: biochemical
Protocol: After sequencing analysis, the phage display were converted into sFabs and then into IgG1s. Their ability to inhibit MMP-9 and other MMPs (1, 3, 7, 8, 9, 10, 12, 13, 14) was determined by usual means. Compounds were initially screened at 1 μM against MMP-9 and those compounds that inhibited MMP-9 >80% were subjected to additional screens against purified recombinant human MMP-2 (APMA activated enzyme) and other MMPs. For these additional screens, an IC50 value was determined. Ki values and specificities of the inhibitors were determined as described below.
Target sequence in this assay (P14780 94-707): as above

Mouse MMP-9 = target: T5, Mouse MMP-9 (Mus musculus, UniProt P41245); assay: Enzyme inhibition assay (single point inhibition, IC50/Ki,app), substrate M-2350; assay type: biochemical; settings: light chain shuffled antibodies
T5 construct: purchased R&D Systems 909-MM (909-MM-010)
T5 sequence (P41245 108-730): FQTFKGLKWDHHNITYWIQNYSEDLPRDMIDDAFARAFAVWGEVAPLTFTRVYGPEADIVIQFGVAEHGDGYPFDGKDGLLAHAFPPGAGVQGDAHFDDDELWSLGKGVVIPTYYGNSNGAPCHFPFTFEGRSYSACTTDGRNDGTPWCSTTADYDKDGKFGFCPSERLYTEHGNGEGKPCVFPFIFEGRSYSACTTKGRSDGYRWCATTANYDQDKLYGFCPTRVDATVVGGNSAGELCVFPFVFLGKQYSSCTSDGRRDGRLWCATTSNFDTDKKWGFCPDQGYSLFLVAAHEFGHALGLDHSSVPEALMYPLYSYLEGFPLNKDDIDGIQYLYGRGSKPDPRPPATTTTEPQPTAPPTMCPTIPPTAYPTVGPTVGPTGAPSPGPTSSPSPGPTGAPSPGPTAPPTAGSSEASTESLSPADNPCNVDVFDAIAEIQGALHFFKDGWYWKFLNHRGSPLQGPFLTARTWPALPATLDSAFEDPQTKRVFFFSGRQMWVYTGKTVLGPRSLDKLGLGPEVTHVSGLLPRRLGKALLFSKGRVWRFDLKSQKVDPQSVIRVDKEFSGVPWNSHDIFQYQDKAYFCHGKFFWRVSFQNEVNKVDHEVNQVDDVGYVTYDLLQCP
Protocol: (§2) 343 unique sFabs from the anti-MMP-9/-2 M237-D02 affinity maturation campaign were discovered by phage display, produced in small scale (6 mL cultures in deep 24-well plates) and screened to select inhibitors with sub-nanomolar potency against the human enzymes and at least single-digit nanomolar potency toward the mouse orthologues. […] Isolates which appeared potent against both human and mouse MMP-2 were then subjected to IC50 analysis against hMMP-9. Sub-nanomolar inhibitors of hMMP-9 were further tested by IC50 analysis against mMMP-9 and h/m MMP-2, if sufficient small-scale sFab material was available. Thirteen potential h/m MMP-9/-2 sFab inhibitors were then produced in medium scale (250 mL cultures in flasks) and retested for h/m MMP-9 and h/m MMP-2 inhibition. Five potential lead candidates were reformatted as IgGs and retested in enzyme inhibition assays.
(§3) Human MMP-9 (Biomol #SE-244), mouse MMP-9 (R&D Systems #909-MM-010), human MMP-2 (Biomol #SE-237) and mouse MMP-2 (R&D Systems #924-MP-010) were tested at final concentrations of 1 nM, 0.25-0.4 nM, 2.5 nM and 0.2 nM, respectively. Target enzymes were incubated with inhibitor for two hours at 30° C. in reaction buffer (50 mM Tris-HCl pH 7.5, 150 mM NaCl, 5 mM CaCl2, 0.05% Brij-35) in a total volume of 90 μL using a white 96 well plate (Costar). Reactions contained 5 μL of small-scale sFab stock solution (average concentration of 500 nM) for single point inhibition analysis or a concentration series of sFab/IgG for IC50 Ki,app determinations. Commercially available anti-MMP-9 antibodies (Millipore mAb 13415 and R&D Systems polyclonal IgG #AB911) were tested by IC50 analyses using 100 nM and 500 nM as the highest inhibitor concentrations, respectively. An anti-MMP-2 antibody (R&D Systems polyclonal IgG #AF902) was similarly tested with 200 nM as the highest inhibitor concentration. Reactions were initiated by the addition of 10 μL of a 10× concentrated stock of substrate, Mca-Lys-Pro-Leu-Gly-Leu-Dap(Dnp)-Ala-Arg-NH2, (Bachem M-2350), at final concentration of 10 μM and monitored at 30° C. in a Molecular Devices' Gemini fluorescence plate reader. The excitation and emission wavelengths were set at 328 nm and 393 nm, respectively. Kinetic data were acquired by the increase in fluorescence, and initial rates for each condition were plotted against the total inhibitor concentration. Reactions were performed in duplicates and all data replicates were plotted in a single graph and fit to the following equation^1:
(§4) Where A=initial rate observed at each inhibitor concentration; Ao=initial rate observed in the absence of inhibitor; Ainh=initial rate observed for the enzyme inhibitor complex; Inh=concentration of inhibitor; E=total enzyme concentration (treated as a floated parameter); and Ki,app=apparent equilibrium inhibition constant.

human MMP-2 = target: T6, human MMP-2 (Homo sapiens, UniProt P08253); assay: as above; assay type: biochemical; settings: light chain shuffled antibodies
T6 construct: purchased Biomol SE-237
T6 sequence (P08253 110-446 limits assumed): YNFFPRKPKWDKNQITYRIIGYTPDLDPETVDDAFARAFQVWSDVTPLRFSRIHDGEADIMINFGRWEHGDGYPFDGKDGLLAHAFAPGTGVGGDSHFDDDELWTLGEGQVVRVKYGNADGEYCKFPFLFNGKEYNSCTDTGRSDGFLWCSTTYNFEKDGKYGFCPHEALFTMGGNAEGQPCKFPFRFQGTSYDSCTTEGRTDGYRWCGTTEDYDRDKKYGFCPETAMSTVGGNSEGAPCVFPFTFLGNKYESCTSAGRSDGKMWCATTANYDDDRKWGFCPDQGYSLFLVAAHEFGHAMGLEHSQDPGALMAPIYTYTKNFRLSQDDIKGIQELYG
Protocol: as §2, §3, §4

mouse MMP-2 = target: T7, mouse MMP-2 (Mus musculus, UniProt P33434); assay: as above; assay type: biochemical; settings: light chain shuffled antibodies
T7 construct: purchased R&D Systems 924-MP-010
T7 sequence (P33434 110-662): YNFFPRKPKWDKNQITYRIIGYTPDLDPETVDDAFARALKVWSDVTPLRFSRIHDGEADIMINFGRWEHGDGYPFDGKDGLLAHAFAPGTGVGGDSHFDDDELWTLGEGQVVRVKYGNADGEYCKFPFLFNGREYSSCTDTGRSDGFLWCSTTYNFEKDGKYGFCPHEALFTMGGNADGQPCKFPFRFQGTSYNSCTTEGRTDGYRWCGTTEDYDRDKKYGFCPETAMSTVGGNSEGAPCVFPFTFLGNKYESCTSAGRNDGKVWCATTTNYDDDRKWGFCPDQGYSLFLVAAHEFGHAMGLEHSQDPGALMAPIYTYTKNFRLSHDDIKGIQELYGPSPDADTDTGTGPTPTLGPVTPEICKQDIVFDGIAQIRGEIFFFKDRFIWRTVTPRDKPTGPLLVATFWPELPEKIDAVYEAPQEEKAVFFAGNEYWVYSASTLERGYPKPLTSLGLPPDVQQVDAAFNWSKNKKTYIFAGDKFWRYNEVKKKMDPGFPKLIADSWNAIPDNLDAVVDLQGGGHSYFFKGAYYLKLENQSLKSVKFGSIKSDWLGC
Protocol: as §2, §3, §4

MMP-9 [4] = target: T4, MMP-9; assay: as above; assay type: biochemical; set-up: Human MMP-9 catalytic domain (BIOMOL, SE-244); purchased BIOMOL SE-244; settings: light chain shuffled antibodies
Protocol: as §2
as §3, with “Commercially available anti-MMP-9 antibodies (Millipore mAb 13415 and R&D Systems polyclonal IgG #AB911) were tested by IC50 analyses using 100 nM and 500 nM as the highest inhibitor concentrations, respectively. An anti-MMP-2 antibody (R&D Systems polyclonal IgG #AF902) was similarly tested with 200 nM as the highest inhibitor concentration.” left out, “The excitation and emission wavelengths were set at 328 nm and 393 nm, respectively.” left out, “Reactions were performed in duplicates and all data replicates were plotted in a single graph and fit to the following equation^1:” left out
Target sequence in this assay (P14780 107-444 limits assumed): as the sequence (P14780 107-444 limits assumed) above

Chain of h-MMP-9/h-TIMP-1 complex (P14780 107-444 limits assumed): as above
Chain of h-MMP-9/h-TIMP-1 complex (P01033 24-207 partner): as the sequence (P01033 24-207) above

Molecule	competition with TIMP-1 (MMP-9 [2])	dissociation t1/2 (MMP-9 [2]) [min]	inhibition of the catalytic activity of MMP-9 (MMP-9 [3])	inhibition of mouse MMP-9 (in words) (Mouse MMP-9)	inhibition of human MMP-2 (in words) (human MMP-2)	inhibition of mouse MMP-2 (in words) (mouse MMP-2)	inhibition of human MMP-9 (in words) (MMP-9 [4])	other results
M0166-F10: inhibitory MMP-9 binding antibody (hMMP-9 antibody inhibitor) (antibody, V domains shown) VH: EVQLLESGGGLVQPGGSLRLSCAASGFTFSPYLMNWVRQAPGKGLEWVSSIYSSGGGTGYADSVKGRFTISRDNSKNTLYLQMNSLRAEDTAVYYCARIYHSSSGPFYGMDVWGQGTTVTVSS VL: QSELTQPPSASAAPGQRVTISCSGSSSNIGSNTVTWYQKLPGTAPKLLIYNNYERPSGVPARFSGSKSGTSASLAISGLQSEDEADYYCATWDDSLIANYVFGSGTKVTVLGQPKANP								binding of huTIMP-1/cat-huMMP-9 (h-MMP-9/h-TIMP-1 complex): no binding was observed; binding of huTIMP-1/cat-huMMP-9 (h-MMP-9/h-TIMP-1 complex; listed as 539A-M0166F10): No; binding of Cat-huMMP-9 ([1]; Direct capture (amine coupling)): binds; binding of Cat-huMMP-9 ([1]; Direct capture (amine coupling), listed as 539A-M0166F10): Yes; binding of Cat-huMMP-9 ([1]; Fc capture (anti-Fc antibody surface)): binds; binding of Cat-huMMP-9 ([1]; Fc capture (anti-Fc antibody surface), listed as 539A-M0166F10): Yes; binding of Pro-huMMP-9 (human pro-MMP-9): observed neither; binding of Pro-huMMP-9 (human pro-MMP-9; listed as 539A-M0166F10): ~No; binding of huTIMP-1 (human TIMP-1): No
M0078-G07: Fab that binds MMP-9 but does not inhibit (antibody, V domains shown) VH: EVQLLESGGGLVQPGGSLRLSCAASGFTFSSYTMEWVRQAPGKGLEWVSWISPSGGYTFYADSVKGRFTISRDNSKNTLYLQMNSLRAEDTALYYCARGYSYGSIDLWGRGTLVTVSS VL: QDIQMTQSPGTLSVSPGERATLSCRASQSVSSDLAWYQHKPGQAPRLLIYGVSTKATGVPARFSGSGSGTEFTLTISSLQSEDLAVYYCQQYHNWPPLTFGGGTKVEIK	does not compete with TIMP-1	25	Neither antibody inhibits					
M0076-D03: Fab that binds MMP-9 but does not inhibit (antibody, V domains shown) VH: EVQLLESGGGLVQPGGSLRLSCAASGFTFSLYRMNWVRQAPGKGLEWVSYIGSSGGATAYADSVKGRFTISRDNSKNTLYLQMNSLRAEDTAVYYCARGAWYLDSWGQGTLVTVSS VL: QDIQMTQSPSSLSASVGDRVTITCRASQGIRNDLDWYQQKPGTAPKRLIYSASNLQSGVPSRFSGSGSGTEFTLTISNLQPEDLATYFCLQHNSFPLTFGQGTKVEIK	does not compete with TIMP-1	33	Neither antibody inhibits					

Continued, in another order:

competition with TIMP-1 (MMP-9 [2])	dissociation t1/2 (MMP-9 [2]) [min]	inhibition of the catalytic activity of MMP-9 (MMP-9 [3])	inhibition of mouse MMP-9 (in words) (Mouse MMP-9)	inhibition of human MMP-2 (in words) (human MMP-2)	inhibition of mouse MMP-2 (in words) (mouse MMP-2)	inhibition of human MMP-9 (in words) (MMP-9 [4])	Molecule	other results
			bind and inhibit	do not inhibit	do not inhibit	bind and inhibit	M0279-A03: MMP-9 specific antibody from light chain shuffling of M237-D02, sFab (antibody, V domains shown) VH: EVQLLESGGGLVQPGGSLRLSCAASGFTFSQYPMWWVRQAPGKGLEWVSYIVPSGGRTYYADSVKGRFTISRDNSKNTLYLQMNSLRAEDTAVYYCAKDRAYGDYVGWNGFDYWGQGTLVTVSS VL: QDIQMTQSPATLSVSPGERVTLSCKASHSISRNLAWYQQKPGQAPRLLIFGASTRATGIPARFSGSGSGTEFTLTISSLEAEDFAVYYCQQRRNWPVTFGPGTKLDFK	
			bind and inhibit	do not inhibit	do not inhibit	bind and inhibit	M0288-C08: MMP-9 specific antibody from light chain shuffling of M237-D02, sFab (antibody, V domains shown) VH: EVQLLESGGGLVQPGGSLRLSCAASGFTFSQYPMWWVRQAPGKGLEWVSYIVPSGGRTYYADSVKGRFTISRDNSKNTLYLQMNSLRAEDTAVYYCAKDRAYGDYVGWNGFDYWGQGTLVTVSS VL: QDIQMTQSPGTLSVSPGERVTLSCRASQSVSSYLAWYQQKPGQAPRLLIYGASTRVTGIPARFSGSGSGTEFTLTISSLQSEDFAVYYCQQRSSWPITFGQGTRLEIK	
